In experiment [1] the target is T1, T148-ADP-ribosylated-actin (100% TccC3-ADP-ribosylated actin) ( (purified from rabbit or …, UniProt P68135 1-377)). The experiment in a line: FP.
Experiment [2] deals with T2, Skeletal actin, unmodified (0% ADPR-actin control) ( (purified from rabbit or …, UniProt P68135 1-377)). The experiment in a line: FP.
The target of experiment [3] is T1, T148-ADP-ribosylated-actin (100% …).
Experiment [4] has as its target T2, Skeletal actin, unmodified (0% …).

Read-outs that look alike come from different tables or passages of the source.

B1: Thymosin-β4 (peptide)
chain: SDKPDMAEIEKFDKSKLKKTETQEKNPLPSKETIEQEKQAGES
modifications: not fully specified; ADP-ribose on threonine-148 (T148)
Usually Kd stands for a measure of binding affinity in units of concentration. For B1, in experiment [1], binding was put at a Kd of 2440 nM.

B2: Thymosin-β4 (peptide)
chain: B1 chain
modifications: not fully specified
B2 yielded a Kd in experiment [2] of 380 nM.

B3: Actin-depolymerizing factor (natural protein)
chain: MASGVQVADEVCRIFYDMKVRKCSTPEEIKKRKKAVIFCLSADKKCIIVEEGKEILVGDVGVTITDPFKHFVGMLPEKDCRYALYDASFETKESRKEELMFFLWAPELAPLKSKMIYASSKDAIKKKFQGIKHECQANGPEDLNRACIAEKLGGSLIVAFEGCPV
B3: the results for the Kd in experiment [3] and in experiment [4] were 331 nM and 21.6 nM, respectively.

These data come from PMC9266650 (2022).
